Measurements published in patent US20240270821A1, “GIP/GLP1/GCG TRI-RECEPTOR AGONISTS AND USES THEREOF” (priority 2023, published 2024).
Starred links: 1 amine or outer side, 2 acyl side, 3 side chain; linkers in the order of their positions; H or OH if unused. Non-standard residues stand in square brackets, D forms with d. Groups on a side chain read outwards from the residue. No end group written: not given here. *: point of attachment. C20 diacid = O=C(O)CCCCCCCCCCCCCCCCCCC(=O)*; C18 diacid = O=C(O)CCCCCCCCCCCCCCCCC(=O)*; Phe(4-CN) = N#Cc1ccc(C[C@H](N)C(=O)O)cc1; αMePhe(2-F) = C[C@](N)(Cc1ccccc1F)C(=O)O; γGlu = O=C(O)[C@H](CCC(=O)[*:2])N[*:1]; NMeY = CN[C@@H](Cc1ccc(O)cc1)C(=O)O; αMeF = C[C@](N)(Cc1ccccc1)C(=O)O; αMeL = CC(C)C[C@](C)(N)C(=O)O; Orn = NCCC[C@H](N)C(=O)O; AEEA = NCCOCCOCC(=O)O; Aib = CC(C)(N)C(=O)O

T1: human GIP receptor (human) (UniProt P48546)
T1 sequence (looked up): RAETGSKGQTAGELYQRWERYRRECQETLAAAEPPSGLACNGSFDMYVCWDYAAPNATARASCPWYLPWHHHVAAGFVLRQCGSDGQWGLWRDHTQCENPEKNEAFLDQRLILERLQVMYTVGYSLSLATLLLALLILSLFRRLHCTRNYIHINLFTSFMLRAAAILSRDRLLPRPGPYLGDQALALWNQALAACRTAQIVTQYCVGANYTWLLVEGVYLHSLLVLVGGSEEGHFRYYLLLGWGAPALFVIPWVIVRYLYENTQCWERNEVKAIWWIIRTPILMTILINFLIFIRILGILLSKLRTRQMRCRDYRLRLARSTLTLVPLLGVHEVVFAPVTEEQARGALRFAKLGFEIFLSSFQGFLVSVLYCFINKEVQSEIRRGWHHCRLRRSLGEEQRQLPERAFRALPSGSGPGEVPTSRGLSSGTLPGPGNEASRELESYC


Key:
Assay in all cases: cell-based or functional assay
[1] = molecular target: human glucagon receptor (human) (UniProt P47871)
[2] = molecular target: human GLP-1R (SNAP-GLP-1R expressed in HEK293 cells) (human) (UniProt P43220)
[3] = molecular target: Pro-Link-tagged Human GLP-1R (human) (UniProt P43220)
[4] = molecular target: hGLP-1R (Homo sapiens, UniProt P43220)
[5] = molecular target: T1, human GIP receptor (human)
[6] = molecular target: human GLP1-R (SNAP-GLP-1R expressed in HEK293 cells) (human) (UniProt P43220)
human GLP1-R (SNAP-GLP-1R expressed in HEK293 cells) (human), sequence (P43220 24-463): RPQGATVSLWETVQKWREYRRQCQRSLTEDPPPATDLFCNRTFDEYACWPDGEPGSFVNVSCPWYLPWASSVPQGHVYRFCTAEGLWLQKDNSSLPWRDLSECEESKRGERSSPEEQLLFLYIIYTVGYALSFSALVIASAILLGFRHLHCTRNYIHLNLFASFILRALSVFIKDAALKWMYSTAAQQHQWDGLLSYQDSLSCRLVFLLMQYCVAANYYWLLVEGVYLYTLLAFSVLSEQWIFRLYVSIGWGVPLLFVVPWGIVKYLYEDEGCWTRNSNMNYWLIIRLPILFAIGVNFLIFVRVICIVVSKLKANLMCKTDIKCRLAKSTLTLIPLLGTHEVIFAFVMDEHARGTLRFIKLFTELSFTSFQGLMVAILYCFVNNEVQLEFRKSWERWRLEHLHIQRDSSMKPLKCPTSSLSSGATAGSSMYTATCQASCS

human glucagon receptor (human), sequence (P47871 26-477): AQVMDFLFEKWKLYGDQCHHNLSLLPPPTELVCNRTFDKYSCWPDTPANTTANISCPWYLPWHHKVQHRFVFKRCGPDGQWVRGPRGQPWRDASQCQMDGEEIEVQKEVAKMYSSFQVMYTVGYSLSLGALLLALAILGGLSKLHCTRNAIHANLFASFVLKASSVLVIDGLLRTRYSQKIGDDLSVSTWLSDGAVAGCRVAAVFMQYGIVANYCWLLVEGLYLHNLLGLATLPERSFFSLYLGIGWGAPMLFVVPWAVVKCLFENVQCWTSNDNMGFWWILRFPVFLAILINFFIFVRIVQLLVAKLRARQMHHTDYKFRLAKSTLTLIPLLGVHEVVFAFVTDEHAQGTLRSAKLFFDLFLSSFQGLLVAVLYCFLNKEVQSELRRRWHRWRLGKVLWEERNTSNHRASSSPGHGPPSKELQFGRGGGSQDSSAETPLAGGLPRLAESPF
Pro-Link-tagged Human GLP-1R (human), sequence (P43220 24-463): as the sequence (P43220 24-463) above
human GLP-1R (SNAP-GLP-1R expressed in HEK293 cells) (human), sequence (P43220 24-463): as above
hGLP-1R, sequence (P43220 24-463): as above

Relative cAMP EC50 [1] | cAMP Rel EC50 (in the presence of 1% HSA) [1] | GLP1R Internalization EC50 [2] | Internalization % TOP [2] | % Stimulation Max [3] | hGLP1R β-arrestin Rel EC50 [3] | Relative cAMP EC50 [4] | cAMP Rel EC50 (in the presence of 1% HSA) [4] | Relative cAMP EC50 [5] | cAMP Rel EC50 (in the presence of 1% HSA) [5] | cAMP Rel EC50 (1% HSA) [1] | cAMP Rel EC50 (1% HSA) [4] | cAMP Rel EC50 (1% HSA) [5] | GLP1R Internalization EC50 [6] | Internalization % TOP [6] | Binder
2.31 nM | – | – | – | 47.8% | 9.21 nM | 0.551 nM | – | 0.127 nM | – | 1720 nM | 172 nM | 48 nM | – | – | Y[Aib]QGT[αMePhe(2-F)]TSDYSKLLDKIAQKAFIEYLIEGGPSSGEPPPSEG-NH2 (not fully specified (residue 20)) [Example 304]
9.28 nM | – | – | – | 47.2% | 6.72 nM | 0.808 nM | – | 0.32 nM | – | 3910 nM | 251 nM | 424 nM | – | – | Y[Aib]QGT[αMePhe(2-F)]TSDYSKLLDKQAQK([AEEA-γGlu-C20 diacid])QFIEYLIEGGPSSGEPPPSEG-NH2 [Example 309]
4.49 nM | – | 27.1 nM | 92.8% | 90.1% | 8.78 nM | 0.798 nM | – | 0.0912 nM | – | 836 nM | 110 nM | 13 nM | – | – | Y[Aib]QGT[αMePhe(2-F)]TSD[Phe(4-CN)]SILLDKQAQK([AEEA-AEEA-γGlu-C20 diacid])AFIEYLLEGGPSSGEPPPSEG-NH2 [Example 321]
6.73 nM | – | – | – | 58.3% | 23.3 nM | 1.48 nM | – | 1 nM | – | 1500 nM | 415 nM | 92.4 nM | – | – | Y[Aib]QGTFTSDYSI[αMeL]LDKQAAKAFVEWLLAGGPSSGEPPPSEG-NH2 (not fully specified (residue 20)) [Example 305]
4.05 nM | – | – | – | 29.7% | 3.76 nM | 0.508 nM | – | 0.398 nM | – | 1560 nM | 140 nM | 85.1 nM | – | – | Y[Aib]QGTFTSDYSK[αMeL]LDKK([AEEA-γGlu-C20 diacid])AQQAFVQWLIEGGPSSGEPPPSEG-NH2 [Example 315]
6.04 nM | – | 28.2 nM | 84.8% | 44% | 10.8 nM | 1.56 nM | – | 0.232 nM | – | 1440 nM | 293 nM | 37.7 nM | – | – | Y[Aib]QGTFTSDYSI[αMeL]LDKIAAK([AEEA-AEEA-γGlu-C20 diacid])QFVQWLIE[Aib]GPSSGEPPPSEG-NH2 [Example 323]
1.68 nM | – | – | – | 70.8% | 9.86 nM | 0.836 nM | – | 0.446 nM | – | 1880 nM | 209 nM | 65.3 nM | – | – | Y[Aib]QGT[αMeF]TSDYSILLDKIAAKNFIEYLVEGGPSSGEPPPSEG-NH2 (not fully specified (residue 20)) [Example 307]
2.08 nM | – | – | – | 39.6% | 19.2 nM | 3.36 nM | – | 0.113 nM | – | 2500 nM | 1080 nM | 26.1 nM | – | – | Y[Aib]QGT[αMePhe(2-F)]TSDYSKILDKIAQK([AEEA-γGlu-C20 diacid])AFIEYLLEGGPSSGEPPPSEG-NH2 [Example 311]
14.2 nM | – | – | – | 41.4% | 16.9 nM | 3.15 nM | – | – | – | 4950 nM | 477 nM | 237 nM | – | – | Y[Aib]QGTFTSDYSI[αMeL]LDKIAAK([AEEA-AEEA-γGlu-C20 diacid])[Orn]FVQYLIAGGPSSGEPPPSEG-NH2 [Example 308]
3.47 nM | – | 34 nM | 91.1% | 74.5% | 6.11 nM | 0.926 nM | – | 0.207 nM | – | 842 nM | 204 nM | 42.6 nM | – | – | Y[Aib]QGTFTSDYSI[αMeL]LDKQAAKQFVEWLLA[Aib]GPSSGEPPPSEG (not fully specified (residue 20)) [Example 329]

The next lines start with the binder.

Binder | Relative cAMP EC50 [1] | cAMP Rel EC50 (in the presence of 1% HSA) [1] | GLP1R Internalization EC50 [2] | Internalization % TOP [2] | % Stimulation Max [3] | hGLP1R β-arrestin Rel EC50 [3] | Relative cAMP EC50 [4] | cAMP Rel EC50 (in the presence of 1% HSA) [4] | Relative cAMP EC50 [5] | cAMP Rel EC50 (in the presence of 1% HSA) [5] | cAMP Rel EC50 (1% HSA) [1] | cAMP Rel EC50 (1% HSA) [4] | cAMP Rel EC50 (1% HSA) [5] | GLP1R Internalization EC50 [6] | Internalization % TOP [6]
Y[Aib]QGT[αMePhe(2-F)]TSDYSILLDKIAAK([AEEA-γGlu-C20 diacid])AFIEYLIEGGPSSGEPPPSEG-NH2 [Example 296] | 1.72 nM | 517 nM | 19.2 nM | 87.2% | 55.2% | 14 nM | 0.536 nM | 171 nM | 0.0806 nM | 21.8 nM | – | – | – | – | –
[NMeY][Aib]QGT[αMeF]TSDYSILLDKQAAKAFVQWLIAGGPSSGEPPPSEG-NH2 (not fully specified (residue 20)) [Example 301] | 6.73 nM | – | – | – | 59.1% | 13.2 nM | 0.641 nM | – | 0.722 nM | – | 1500 nM | 82.4 nM | 81.8 nM | – | –
[NMeY][Aib]QGT[αMeF]TSDYSILLDKQAAKAFVQWLIEGGPSSGEPPPSEG-NH2 (not fully specified (residue 20)) [Example 302] | 4.47 nM | – | – | – | 56.6% | 11.2 nM | 0.621 nM | – | 0.7 nM | – | 1370 nM | 73.6 nM | 91.8 nM | – | –
Y[Aib]QGTFTSDYSI[αMeL]LDKK([AEEA-γGlu-C20 diacid])AQRAFIEYLLEGGPSSGEPPPSEG-NH2 [Example 289] | 5.02 nM | 1750 nM | 10.9 nM | 86.5% | 47.5% | 5.96 nM | 0.449 nM | 139 nM | 0.382 nM | 105 nM | – | – | – | – | –
Y[Aib]QGT[αMePhe(2-F)]TSDYSKLLDKIAQK([AEEA-γGlu-C20 diacid])AFIEYLLEGGPSSGEPPPSEG-NH2 [Example 295] | 2.15 nM | 605 nM | 31.4 nM | 88.4% | 44.1% | 16.4 nM | 0.831 nM | 232 nM | 0.126 nM | 61.1 nM | – | – | – | – | –
YXQGTFTSDFSKXLDKKAQXAFIEYLLAGGPSSGEPPPSEG (synthetic construct; SITE 2: note = 2-Aminoisobutyric Acid; SITE 13: note = alpha-methyl-leucine; SITE 17: note = Lysine is chemically modified through conjugation of the epsilon-amino group of the Lysine side chain with (2-[2-(2-Amino-ethoxy)-ethoxy]-acetyl)-(gamma-Glu)-CO-(CH2) 18-CO2H; SITE 20: n) [Example 1] | 3.72 nM | 1690 nM | – | – | 17.3% | > 10000 nM | 1.42 nM | 524 nM | 0.207 nM | 73.9 nM | – | – | – | 44.7 nM | 69.1%
YXQGTFTSDFSIXLDKKAQXAFIEYLLEGGPSSGEPPPSEG (non-natural residues; acylated Lys; C-terminal amide; synthetic construct; SITE 2: note = 2-Aminoisobutyric Acid; SITE 13: note = alpha-methyl-leucine; SITE 17: note = Lysine is chemically modified through conjugation of the epsilon-amino group of the Lysine side chain with (2-[2-(2-Amino-ethoxy)-ethoxy]-acetyl)-(gamma-Glu)-CO-(CH2) 18-CO2H; SITE 20: n) [Example 288] | 5.17 nM | 3580 nM | 30.3 nM | 72.4% | 18% | 16.3 nM | 1.89 nM | 616 nM | 0.234 nM | 59.1 nM | – | – | – | – | –
YXQGTFTSDFSKXLDKKAQXAFIEYLLAGGPSSGEPPPSGE (synthetic construct; SITE 2: note = 2-Aminoisobutyric Acid; SITE 13: note = alpha-methyl-leucine; SITE 17: note = Lysine is chemically modified through conjugation of the epsilon-amino group of the Lysine side chain with (2-[2-(2-Amino-ethoxy)-ethoxy]-acetyl)-(gamma-Glu)-CO-(CH2) 18-CO2H; SITE 20: n) [Example 2] | 4.29 nM | 1630 nM | – | – | 12.3% | > 10000 nM | 1.65 nM | 631 nM | 0.207 nM | 75.5 nM | – | – | – | 49.5 nM | 66.8%
